Assay results reported in patent US20080199851A1.
Several values for one entry are separate records, joined by “and”; a condition that tells them apart may be missing. Identical values can stand only once.

Assays:
[1] = molecular target: Recombinant H5 hemagglutinin; experiment: lateral-flow sandwich, 3C8 line + 3G4-gold, 50 uL buffer, 15 min
[2] = molecular target: Recombinant H5 hemagglutinin; experiment: lateral-flow sandwich, 3C8 line + 3G4-gold, 50 uL buffer, 20 min
[3] = molecular target: Recombinant H5 hemagglutinin; experiment: lateral-flow sandwich, 3C8 line + 3G4-gold, 50 uL buffer, 25 min
[4] = molecular target: Recombinant H5 hemagglutinin; experiment: lateral-flow sandwich, 3C8 line + 3G4-gold, 50 uL buffer, 30 min
[5] = molecular target: Recombinant H5 hemagglutinin; experiment: lateral-flow sandwich, 3C8 line + 3G4-gold, 60 uL buffer, 15 min
[6] = molecular target: Recombinant H5 hemagglutinin; experiment: lateral-flow sandwich, 3C8 line + 3G4-gold, 60 uL buffer, 20 min
[7] = molecular target: Recombinant H5 hemagglutinin; experiment: lateral-flow sandwich, 3C8 line + 3G4-gold, 60 uL buffer, 25 min
[8] = molecular target: Recombinant H5 hemagglutinin; experiment: lateral-flow sandwich, 3C8 line + 3G4-gold, 60 uL buffer, 30 min
[9] = molecular target: Recombinant H5 hemagglutinin; experiment: lateral-flow sandwich, 3C8 line + 3G4-gold, 70 uL buffer, 15 min
[10] = molecular target: Recombinant H5 hemagglutinin; experiment: lateral-flow sandwich, 3C8 line + 3G4-gold, 70 uL buffer, 20 min
[11] = molecular target: Recombinant H5 hemagglutinin; experiment: lateral-flow sandwich, 3C8 line + 3G4-gold, 70 uL buffer, 25 min
[12] = molecular target: Recombinant H5 hemagglutinin; experiment: lateral-flow sandwich, 3C8 line + 3G4-gold, 70 uL buffer, 30 min
[13] = molecular target: Recombinant H5 hemagglutinin; experiment: lateral-flow sandwich, 3C8 line + 3G4-gold, 80 uL buffer, 15 min
[14] = molecular target: Recombinant H5 hemagglutinin; experiment: lateral-flow sandwich, 3C8 line + 3G4-gold, 80 uL buffer, 20 min
[15] = molecular target: Recombinant H5 hemagglutinin; experiment: lateral-flow sandwich, 3C8 line + 3G4-gold, 80 uL buffer, 25 min
[16] = molecular target: Recombinant H5 hemagglutinin; experiment: lateral-flow sandwich, 3C8 line + 3G4-gold, 80 uL buffer, 30 min
[17] = molecular target: Recombinant H5 hemagglutinin; experiment: lateral-flow sandwich, 3C8 line + 3G4-gold, 50 uL buffer, 15 min; remark: listed apart in the source
[18] = molecular target: Recombinant H5 hemagglutinin; experiment: lateral-flow sandwich, 3C8 line + 3G4-gold, 60 uL buffer, 15 min; remark: listed apart in the source
[19] = molecular target: Recombinant H5 hemagglutinin; experiment: lateral-flow sandwich, 3C8 line + 3G4-gold, 70 uL buffer, 15 min; remark: listed apart in the source
[20] = molecular target: Recombinant H5 hemagglutinin; experiment: lateral-flow sandwich, 3C8 line + 3G4-gold, 100 uL buffer, 15 min
[21] = molecular target: Recombinant H5 hemagglutinin; experiment: lateral-flow sandwich, 3C8 line + 3G4-gold, 100 uL buffer, 20 min
[22] = molecular target: Recombinant H5 hemagglutinin; experiment: lateral-flow sandwich, 3C8 line + 3G4-gold, 100 uL buffer, 25 min
[23] = molecular target: Recombinant H5 hemagglutinin; experiment: lateral-flow sandwich, 3C8 line + 3G4-gold, 100 uL buffer, 30 min

B1: monoclonal antibody 3C8 (antibody, V domains shown)
VH: QIQLVQSGPELKKPGETVKISCKASGYSFTNYGMNWVKQAPGKGLKWMGWINTYTGEPAYADDFKGRFAFSLETSASTAYLQINNLKNEDTATYFCARWNRDAMDYWGQGTSVTVSS
VL: DIVLTQSPASLAVSLGQRATISCRASESVDSSDNSLMHWYQQKPGQPPKLLIYRASNLESGIPARFSGSGSRTDFTLTINPVEADDVATYYCQQSIGDPPYTFGGGTKLEIKR
**Q.** B1 was tested. Which Peak Intensity [1] did it give?
**A.** Its Peak Intensity is 55.6 and 51.1.

**Q.** And the Peak Intensity [2]?
**A.** Its Peak Intensity is 62.3 and 57.3.

**Q.** What about the Peak Intensity [3] of the same binder?
**A.** Its Peak Intensity is 63.1 and 55.4.

**Q.** And the Peak Intensity [4]?
**A.** Its Peak Intensity is 62.5 and 62.6.

**Q.** And the Peak Intensity [5]?
**A.** The Peak Intensity was 53.5 and 51.6.

**Q.** And the Peak Intensity [6]?
**A.** Its Peak Intensity is 65.7 and 63.8.

**Q.** And the Peak Intensity [7]?
**A.** Its Peak Intensity is 68.5 and 66.2.

**Q.** And the Peak Intensity [8]?
**A.** Its Peak Intensity is 68.9 and 66.5.

**Q.** And the Peak Intensity [9]?
**A.** Its Peak Intensity is 45.6 and 42.1.

**Q.** What about the Peak Intensity [10] of the same binder?
**A.** The Peak Intensity was 57.9 and 57.

**Q.** What about the Peak Intensity [11] of the same binder?
**A.** The Peak Intensity was 60.4 and 61.7.

**Q.** What about the Peak Intensity [12] of the same binder?
**A.** The Peak Intensity was 60.7 and 63.9.

**Q.** And the Peak Intensity [13]?
**A.** The Peak Intensity was 39.6 and 42.9.

**Q.** What about the Peak Intensity [14] of the same binder?
**A.** The Peak Intensity was 53.7 and 57.9.

**Q.** And the Peak Intensity [15]?
**A.** Its Peak Intensity is 59.8 and 64.7.

**Q.** And the Peak Intensity [16]?
**A.** The Peak Intensity was 61.5 and 65.4.

**Q.** And the Peak Intensity [17]?
**A.** Its Peak Intensity is 56.9 and 57.8.

**Q.** What about the Peak Intensity [18] of the same binder?
**A.** The Peak Intensity was 50.2 and 51.2.

**Q.** What about the Peak Intensity [19] of the same binder?
**A.** Its Peak Intensity is 46.8 and 47.9.

**Q.** What about the Peak Intensity [20] of the same binder?
**A.** Its Peak Intensity is 35.2 and 30.8.

**Q.** What about the Peak Intensity [21] of the same binder?
**A.** The Peak Intensity was 49.2 and 44.9.

**Q.** What about the Peak Intensity [22] of the same binder?
**A.** Its Peak Intensity is 54.6 and 49.3.

**Q.** What about the Peak Intensity [23] of the same binder?
**A.** The Peak Intensity was 55.6 and 49.8.
